Assay results reported in patent publication US20240117038A1 (Ablynx, published 2024).

Legend:
human CX3CR1 [1] = molecular target: T1, human CX3CR1 (human, UniProt P49238 1-355); assay: cell-based or functional assay
T1 sequence: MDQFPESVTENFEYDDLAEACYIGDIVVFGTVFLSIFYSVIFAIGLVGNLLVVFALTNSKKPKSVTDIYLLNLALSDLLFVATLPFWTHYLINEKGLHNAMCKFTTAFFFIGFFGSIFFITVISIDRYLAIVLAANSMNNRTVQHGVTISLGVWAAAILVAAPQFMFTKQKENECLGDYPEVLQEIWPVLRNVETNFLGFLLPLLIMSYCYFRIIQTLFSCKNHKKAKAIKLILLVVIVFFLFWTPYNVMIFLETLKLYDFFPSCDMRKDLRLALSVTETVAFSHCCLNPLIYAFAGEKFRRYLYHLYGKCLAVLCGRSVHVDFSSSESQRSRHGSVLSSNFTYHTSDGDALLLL

human CX3CR1 [2] = molecular target: T1, human CX3CR1; assay: cell-based or functional assay; remark: listed apart in the source

arbitrary migration index (GM), classical monocytes of healthy donors, 625 pM (human CX3CR1 [1]): 1.15 fold change to media control
arbitrary migration index (GM), classical monocytes of healthy donors, 2500 pM (human CX3CR1 [1]): 1.09 fold change to media control
arbitrary migration index (GM), classical monocytes of healthy donors, 10000 pM (human CX3CR1 [1]): 1.05 fold change to media control
arbitrary migration index (GM), classical monocytes of healthy donors, 40000 pM (human CX3CR1 [1]): 1.27 fold change to media control
arbitrary migration index (GM), intermediate monocytes of healthy donors, 625 pM (human CX3CR1 [1]): 1.26 fold change to media control
arbitrary migration index (GM), intermediate monocytes of healthy donors, 2500 pM (human CX3CR1 [1]): 1.14 fold change to media control
arbitrary migration index (GM), intermediate monocytes of healthy donors, 10000 pM (human CX3CR1 [1]): 1.04 fold change to media control
arbitrary migration index (GM), intermediate monocytes of healthy donors, 40000 pM (human CX3CR1 [1]): 1.13 fold change to media control
arbitrary migration index (GM), non-classical monocytes of healthy donors, 625 pM (human CX3CR1 [1]): 1.05 fold change to media control
arbitrary migration index (GM), non-classical monocytes of healthy donors, 2500 pM (human CX3CR1 [1]): 1.08 fold change to media control
arbitrary migration index (GM), non-classical monocytes of healthy donors, 10000 pM (human CX3CR1 [1]): 0.82 fold change to media control
arbitrary migration index (GM), non-classical monocytes of healthy donors, 40000 pM (human CX3CR1 [1]): 0.91 fold change to media control
fold inhibition of monocyte migration (A041600035 VS IRR VHH), healthy, CD16+ monocytes (human CX3CR1 [2]): 2.34 fold
fold inhibition of monocyte migration (A041600035 VS IRR VHH), healthy, CD16- monocytes (human CX3CR1 [2]): 1.5 fold
fold inhibition of monocyte migration (A041600035 VS IRR VHH), healthy, total monocytes (human CX3CR1 [2]): 1.82 fold
fold inhibition of monocyte migration (A041600035 VS IRR VHH), lupus nephritis, CD16+ monocytes (human CX3CR1 [2]): 1.9 fold
fold inhibition of monocyte migration (A041600035 VS IRR VHH), lupus nephritis, CD16- monocytes (human CX3CR1 [2]): 1.71 fold
fold inhibition of monocyte migration (A041600035 VS IRR VHH), lupus nephritis, total monocytes (human CX3CR1 [2]): 1.71 fold
B1: A041600035 (VHH)
chain: DVQLVESGGGSVQPGGSLRLSCAASGSIFSSTAMAWYRQAPGKQRDLVAVISTVGITKYADSVKGRFTISRDNAKNTVYLQMNSLRPEDTALYYCTSDARRGWDTRYWGQGTLVTVSSGGGGSGGGSEVQLVESGGGSVQPGGSLRLSCAASGSIFSSTAMAWYRQAPGKQRDLVAVISTVGITKYADSVKGRFTISRDNAKNTVYLQMNSLRPEDTALYYCTSDARRGWDTRYWGQGTLVTVSSGGGGSGGGSEVQLVESGGGVVQPGGSLRLSCAASGFTFRSFGMSWVRQAPGKGPEWVSSISGSGSDTLYADSVKGRFTISRDNSKNTLYLQMNSLRPEDTALYYCTIGGSLSRSSQGTLVTVSSA
notes: Trivalent ISVD construct (two anti-CX3CR1 ISVDs, one anti-albumin ISVD), C-terminal alanine included in the entry; also called 54A12_SO (E1D)-9GS-54A12_SO-9GS-ALB23002-A
